The source of these data is patent publication US20230192839A1, “ANTIBODIES HAVING CONDITIONAL AFFINITY AND METHODS OF USE THEREOF” (PFIZER INC., priority 2017, published 2023).

The assay deals with human CD33. The experiment in a line: Biacore SPR binding kinetics of anti-CD33 scFv-Fc clones with or without 10 µM MTX. The following applies: for koff, kinetics toward antigen with 0 µM MTX / kon, kinetics toward antigen with 0 µM MTX / koff, kinetics toward antigen with 10 µM MTX / kon, kinetics toward antigen with 10 µM MTX / Kd: 37° C., pH 7.4; for koff, kinetics toward antigen with 0 µM MTX / kon, kinetics toward antigen with 0 µM MTX / koff, kinetics toward antigen with 10 µM MTX / kon, kinetics toward antigen with 10 µM MTX: scFv-Fc; for koff, kinetics toward antigen with 10 µM MTX / kon, kinetics toward antigen with 10 µM MTX / Kd: 10 µM MTX; for Kd: koff/kon, or estimated from binding response / limit of detection for weak interactions, read-out: KD, kinetics toward antigen with 10 µM MTX. The text has this: The first 4 rounds of panning used biotinylated CD33 antigen captured on streptavidin or neutravidin coated 96-well plates. […] 1536 clones were randomly chosen from the 4th and 5th round of panning against the CD33 antigen and their binding specificity determined by phage ELISA. Clones that specifically bound to CD33 were sequenced and all unique clones were subjected to a phage competition ELISA to assess their relative affinities to CD33 and sensitivity to MTX by measuring their binding strengths in the presence or absence of 10 µM (micromolar) MTX (i.e. in 0 or 10 µM MTX).
All binding kinetics analysis was performed on label-free Biacore surface plasmon biosensors (Biacore T200™ from GE Life Sciences) at 37° C. in 10 mM Hepes pH 7.4, 150 mM NaCl, 0.05% Tween-20 (HBST+), with or without 10 µM MTX. The Biacore data were processed in Biacore T200 Evaluation Software, and the data were double-referenced (Myszka, 1999, J Mol Recognit 12(5):279-284) and fit globally to a simple Langmuir with mass transport model to determine the equilibrium dissociation constant, KD, from the ratio of the kinetic rate constants (KD = koff/kon). In some cases the binding of antigen was very low (or not detectable) in the presence of 10 µM MTX and as a result kinetic rate constants could not be accurately determined. In these cases, a KD (or KD limit) was estimated based on the binding response at the highest analyte concentration tested or based on the typical limit of detection for a Biacore T200.

B1: P01_B02: anti-CD33 clone with increased affinity in presence of MTX; VH SEQ ID NO: 31, VL SEQ ID NO: 32 (antibody, V domains shown)
VH: QVQLVESGGGLVQAGGSLRLSCAASRRSSRSWAMHWVRQAPGKGLEWVAVISYDGRLKYYADSVKGRFTISRDNAEYLVYLQMNSLRAEDTAVYYCAAADWYSGGGDALDIWGQGTLVTVSS
VL: DIQMTQSPSSLSASVGDRVTITCRASQTIYNYLNWYQQKPGKAPKLLIYGASNLQSGVPSRFSGSGSGTDFTLTISSLQPEDFATYYCQQTYSSPTFGQGTKVEIK
modifications: Synthetic Antibody
As for B1, the “affinity for CD33 in the presence of MTX as compared to absence (in words)” value (10 µM MTX vs 0 µM MTX) is on record as “increased affinity for CD33 in the presence of 10 µM MTX”. Under “CD33”, the “times greater affinity for CD33 in the presence of 10 µM MTX as compared to in 0 µM MTX” value is on record as “about 10 times”; the “koff, kinetics toward antigen with 0 µM MTX” value (“koff … with 0 µM MTX” below) was determined as 0.0026 s⁻¹; the “kon, kinetics toward antigen with 0 µM MTX” value (from here on “kon … with 0 µM MTX”) was determined as 140000 M⁻¹ s⁻¹; the “koff, kinetics toward antigen with 10 µM MTX” value (from here on “koff … with 10 µM MTX”) worked out at 0.0006 s⁻¹. Besides, the “kon, kinetics toward antigen with 10 µM MTX” value (“kon … with 10 µM MTX” below) (CD33) came to 390000 M⁻¹ s⁻¹.

B2: P04_C09: anti-CD33 clone with conditional affinity; VH SEQ ID NO: 23, VL SEQ ID NO: 24 (antibody, V domains shown)
VH: QVQLVESGGGLVQAGGSLRLSCAASRRSSRSWAMHWVRQAPGKGLEWVAVISYDGRLKYYADSVKGRFTISRDNAEYLVYLQMNSLRAEDTAVYYCAAEANESDSGGIDVWGQGTLVTVSS
VL: DIQMTQSPSSLSASVGDRVTITCRASQTIGGYLNWYQQKPGKAPKLLIYAASSLQSGVPSRFSGSGSGTDFTLTISSLQPEDFATYYCQQGYSSGAFGQGTKVEIK
modifications: Synthetic Antibody
On to B2, for which, for the setting “CD33”, the “koff … with 0 µM MTX” value stood at 0.0018 s⁻¹; the “kon … with 0 µM MTX” value was determined as 160000 M⁻¹ s⁻¹; the “koff … with 10 µM MTX” value was found to be 0.0089 s⁻¹; the “kon … with 10 µM MTX” value came out at 44000 M⁻¹ s⁻¹.

B3: P08_C08: anti-CD33 clone with conditional affinity; VH SEQ ID NO: 27, VL SEQ ID NO: 28 (antibody, V domains shown)
VH: QVQLVESGGGLVQAGGSLRLSCAASRRSSRSWAMHWVRQAPGKGLEWVAVISYDGRLKYYADSVKGRFTISRDNAEYLVYLQMNSLRAEDTAVYYCAAEGSGSTDGSGAIDVWGQGTLVTVSS
VL: DIQMTQSPSSLSASVGDRVTITCRASQSIGSYLNWYQQKPGKAPKLLIYAASSLQSGVPSRFSGSGSGTDFTLTISSLQPEDFATYYCQQSYSSGSFGQGTKVEIK
modifications: Synthetic Antibody
For B3, for the setting “CD33”, the “koff … with 0 µM MTX” value is 0.0045 s⁻¹; the “kon … with 0 µM MTX” value was determined as 63000 M⁻¹ s⁻¹; the “koff … with 10 µM MTX” value turned out to be 0.051 s⁻¹; the “kon … with 10 µM MTX” value stood at 94000 M⁻¹ s⁻¹.

B4: P02_A10: anti-CD33 clone with conditional affinity; VH SEQ ID NO: 9, VL SEQ ID NO: 10 (antibody, V domains shown)
VH: QVQLVESGGGLVQAGGSLRLSCAASRRSSRSWAMHWVRQAPGKGLEWVAVISYDGRLKYYADSVKGRFTISRDNAEYLVYLQMNSLRAEDTAVYYCAAESEWDTGGFDVWGQGTLVTVSS
VL: DIQMTQSPSSLSASVGDRVTITCRASQSIGSYLNWYQQKPGKAPKLLIYSSSNLQSGVPSRFSGSGSGTDFTLTISSLQPEDFATYYCQQSYTSGTFGQGTKVEIK
modifications: Synthetic Antibody
The term Kd denotes the concentration at which binding is half-saturated. B4: under “CD33”, the “koff … with 0 µM MTX” value is 0.044 s⁻¹; the “kon … with 0 µM MTX” value was 84000 M⁻¹ s⁻¹; the Kd was above 9.02 µM.

B5: P16_E06: anti-CD33 clone with conditional affinity; VH SEQ ID NO: 29, VL SEQ ID NO: 30 (antibody, V domains shown)
VH: QVQLVESGGGLVQAGGSLRLSCAASRRSSRSWAMHWVRQAPGKGLEWVAVISYDGRLKYYADSVKGRFTISRDNAEYLVYLQMNSLRAEDTAVYYCAAEGGDYPGTSDGGLDIWGQGTLVTVSS
VL: DIQMTQSPSSLSASVGDRVTITCRASQSISNYLNWYQQKPGKAPKLLIYGASSLQSGVPSRFSGSGSGTDFTLTISSLQPEDFATYYCQQSYSAGTFGQGTKVEIK
modifications: Synthetic Antibody
As for B5, where the note is “CD33”, the “koff … with 0 µM MTX” value was 0.011 s⁻¹; the “kon … with 0 µM MTX” value was found to be 120000 M⁻¹ s⁻¹; the “koff … with 10 µM MTX” value was 0.087 s⁻¹; the “kon … with 10 µM MTX” value worked out at 75000 M⁻¹ s⁻¹.

B6: P01_A09: anti-CD33 clone with conditional affinity; VH SEQ ID NO: 3, VL SEQ ID NO: 4; tested as scFv-Fc (antibody, V domains shown)
VH: QVQLVESGGGLVQAGGSLRLSCAASRRSSRSWAMHWVRQAPGKGLEWVAVISYDGRLKYYADSVKGRFTISRDNAEYLVYLQMNSLRAEDTAVYYCAAERPTSDGSTGGMDVWGQGTLVTVSS
VL: DIQMTQSPSSLSASVGDRVTITCRASQSISSYLNWYQQKPGKAPKLLIYGASTLQSGVPSRFSGSGSGTDFTLTISSLQPEDFATYYCQQSYSSGTFGQGTKVEIK
Consider B6, for which, where the note is “CD33”, the “koff … with 0 µM MTX” value turned out to be 0.017 s⁻¹ and the “kon … with 0 µM MTX” value turned out to be 110000 M⁻¹ s⁻¹.

B7: P02_C02: anti-CD33 reference clone, less than 2-fold MTX effect; VH SEQ ID NO: 11, VL SEQ ID NO: 12 (antibody, V domains shown)
VH: QVQLVESGGGLVQAGGSLRLSCAASRRSSRSWAMHWVRQAPGKGLEWVAVISYDGRLKYYADSVKGRFTISRDNAEYLVYLQMNSLRAEDTAVYYCAAEGGMGLDPWGQGTLVTVSS
VL: DIQMTQSPSSLSASVGDRVTITCRASQTISSYLNWYQQKPGKAPKLLIYAASNLHSGVPSRFSGSGSGTDFTLTISSLQPEDFATYYCQQSYSSGTFGQGTKVEIK
modifications: Synthetic Antibody
For the molecule B7, where the note is “CD33”, the “koff … with 0 µM MTX” value amounted to 0.02 s⁻¹; the “kon … with 0 µM MTX” value was determined as 92000 M⁻¹ s⁻¹; the “koff … with 10 µM MTX” value was 0.025 s⁻¹; the “kon … with 10 µM MTX” value amounted to 110000 M⁻¹ s⁻¹.

B8: P04_C05: anti-CD33 clone with conditional affinity; VH SEQ ID NO: 41, VL SEQ ID NO: 42 (antibody, V domains shown)
VH: QVQLVESGGGLVQAGGSLRLSCAASRRSSRSWAMHWVRQAPGKGLEWVAVISYDGRLKYYADSVKGRFTISRDNAEYLVYLQMNSLRAEDTAVYYCAAGLPWTDYWGQGTLVTVSS
VL: QSVLTQPPSASGTPGQRVTISCSGSNSNIGSNYVSWYQQLPGTAPKLLIYSNNQRPSGVPDRFSGSKSGTSASLAISGLRSEDEADYYCAAWDDRLSVVFGTGTKLTVL
modifications: Synthetic Antibody
With B8, under “CD33”, the “koff … with 0 µM MTX” value was 0.0021 s⁻¹; the “kon … with 0 µM MTX” value came to 83000 M⁻¹ s⁻¹; the “koff … with 10 µM MTX” value amounted to 0.013 s⁻¹; the “kon … with 10 µM MTX” value came out at 45000 M⁻¹ s⁻¹.

B9: P02_E08: anti-CD33 clone with conditional affinity; VH SEQ ID NO: 37, VL SEQ ID NO: 38; also as scFv in CAR (antibody, V domains shown)
VH: QVQLVESGGGLVQAGGSLRLSCAASRRSSRSWAMHWVRQAPGKGLEWVAVISYDGRLKYYADSVKGRFTISRDNAEYLVYLQMNSLRAEDTAVYYCAASDYDGGGLFDLWGQGTLVTVSS
VL: QSVLTQPPSASGTPGQRVTISCSGSNSNIGDNYVHWYQQLPGTAPKLLIYMNNQRPSGVPDRFSGSKSGTSASLAISGLRSEDEADYYCATWDDSLSGVVFGTGTKLTVL
modifications: Synthetic Antibody
notes: also as scFv in CAR
On to B9, for which, where the note is “CD33”, the “koff … with 0 µM MTX” value was 0.01 s⁻¹; the “kon … with 0 µM MTX” value came to 47000 M⁻¹ s⁻¹; the dissociation constant Kd is above 0.726 µM.

B10: P03_H04: anti-CD33 clone with conditional affinity; VH SEQ ID NO: 39, VL SEQ ID NO: 40; also as scFv in CAR (antibody, V domains shown)
VH: QVQLVESGGGLVQAGGSLRLSCAASRRSSRSWAMHWVRQAPGKGLEWVAVISYDGRLKYYADSVKGRFTISRDNAEYLVYLQMNSLRAEDTAVYYCAADPHDGYGGGPGFDYWGQGTLVTVSS
VL: QSVLTQPPSASGTPGQRVTISCSGSSSNIGSNYVYWYQQLPGTAPKLLIYRSNQRPSGVPDRFSGSKSGTSASLAISGLRSEDEADYYCAAWDDTLSAVVFGTGTKLTVL
modifications: Synthetic Antibody
notes: also as scFv in CAR
On to B10, for which, under “CD33”, the “koff … with 0 µM MTX” value came to 0.026 s⁻¹; the “kon … with 0 µM MTX” value was determined as 72000 M⁻¹ s⁻¹; the Kd is above 15.7 µM.
